Results taken from patent publication US20250352667A1.

How the values were obtained:
[1] = molecular target: KEAP1 (wild-type full-length), His-tagged (human) (UniProt Q14145); test: AlphaScreen; over 9.6, 19.2 and 38.4 nM NRF2; 150 nM His-KEAP1
[2] = molecular target: KEAP1 (wild-type full-length), His-tagged (human) (UniProt Q14145); test: AlphaScreen, all variants on one plate; optimal condition (19.2 nM NRF2), KEAP1 150 nM; relative to NRF2 (WT) isoform 2
[3] = molecular target: KEAP1 (wild-type full-length), His-tagged (human) (UniProt Q14145); test: AlphaScreen; 19.2 nM FLAG-NRF2, 150 nM His-KEAP1; Repeat 2 (same value as in Table 23)
[4] = molecular target: KEAP1 (wild-type full-length), His-tagged (human) (UniProt Q14145); test: AlphaScreen; 19.2 nM FLAG-NRF2, 150 nM His-KEAP1; against wild-type NRF2 isoform 2 = 100%
[5] = molecular target: KEAP1 (wild-type full-length), His-tagged (human) (UniProt Q14145); test: AlphaScreen; average of three conditions; against wild-type NRF2 isoform 2
[6] = molecular target: KEAP1 (wild-type full-length), His-tagged (human) (UniProt Q14145); test: AlphaScreen; mean over 9.6, 19.2 and 38.4 nM NRF2; 150 nM His-KEAP1; against wild-type NRF2 isoform 2 = 100%
[7] = molecular target: KEAP1 (wild-type full-length), His-tagged (human) (UniProt Q14145); test: AlphaScreen, all variants on one plate; lower condition (9.6 nM NRF2), KEAP1 150 nM; relative to NRF2 (WT) isoform 2
[8] = molecular target: KEAP1 (wild-type full-length), His-tagged (human) (UniProt Q14145); test: AlphaScreen; 38.4 nM FLAG-NRF2, 150 nM His-KEAP1; against wild-type NRF2 isoform 2 = 100%
[9] = molecular target: KEAP1 (wild-type full-length), His-tagged (human) (UniProt Q14145); test: AlphaScreen; mean over 9.6, 19.2 and 38.4 nM NRF2; 150 nM His-KEAP1; against wild-type NRF2 isoform 2
[10] = molecular target: KEAP1 (wild-type full-length), His-tagged (human) (UniProt Q14145); test: AlphaScreen, all variants on one plate; optimal condition (19.2 nM NRF2), KEAP1 150 nM; the reference itself
[11] = molecular target: KEAP1 (wild-type full-length), His-tagged (human) (UniProt Q14145); test: AlphaScreen; 19.2 nM FLAG-NRF2, 150 nM His-KEAP1; Repeat 2 (same value as in Table 22)
[12] = molecular target: KEAP1 (wild-type full-length), His-tagged (human) (UniProt Q14145); test: AlphaScreen, all variants on one plate; lower condition (9.6 nM NRF2), KEAP1 150 nM; the reference itself

Chain of KEAP1 (wild-type full-length), His-tagged (human) (Q14145 2-624 limits assumed, form in doubt): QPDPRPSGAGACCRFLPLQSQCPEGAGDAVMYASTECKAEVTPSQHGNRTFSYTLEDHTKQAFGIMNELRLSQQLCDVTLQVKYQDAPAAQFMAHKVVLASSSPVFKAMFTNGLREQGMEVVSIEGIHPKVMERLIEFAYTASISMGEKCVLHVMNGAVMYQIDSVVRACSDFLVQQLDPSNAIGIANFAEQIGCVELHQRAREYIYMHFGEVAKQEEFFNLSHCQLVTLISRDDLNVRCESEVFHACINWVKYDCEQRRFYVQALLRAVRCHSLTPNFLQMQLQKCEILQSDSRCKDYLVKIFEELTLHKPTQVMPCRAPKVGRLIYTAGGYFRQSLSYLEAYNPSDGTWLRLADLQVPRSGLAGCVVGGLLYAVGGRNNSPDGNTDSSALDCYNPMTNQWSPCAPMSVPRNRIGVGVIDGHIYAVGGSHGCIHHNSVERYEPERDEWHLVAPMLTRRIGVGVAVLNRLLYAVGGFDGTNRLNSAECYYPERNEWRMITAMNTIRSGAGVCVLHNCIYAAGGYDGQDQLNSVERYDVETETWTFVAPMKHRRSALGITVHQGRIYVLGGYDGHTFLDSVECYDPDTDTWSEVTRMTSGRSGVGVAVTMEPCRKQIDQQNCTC

Substance	Standard Deviation (of binding percentage) [1] [%]	% Disruption in Binding [2] [%]	A-counts [3] [A-counts]	Binding Percentage (%) [4] [%]	Reported Value (reduction in binding) [5] [%]	Average Binding [6] [%]	% Disruption in Binding [7] [%]	Binding Percentage (%) [8] [%]	Avg. Reduction in Binding [9] [%]	% Disruption in Binding [10] [%]	A-counts [11] [A-counts]	% Disruption in Binding [12] [%]
NRF2 isoform 2 (E63G/E66G full-length), FLAG-tagged	10.2	59.7	1950	19.2	69.1	30.9	63.4	37.8	69.1			
NRF2 isoform 2 (wild-type full-length), FLAG-tagged										0	3260	0
